These results are taken from patent US20240317858A1.

This assay concerns the target Mouse CD3εδ Fc heterodimer (mouse) (UniProt P22646). Put plainly: BLI (Octet), IgG avidity, pH 7.4.

Substitutions are numbered along the chain they refer to.

B1: Antibody No. A002 (ADI-50024) IgG1 (antibody, V domains shown)
VH: QVQLVQSGAEVKKPGASVKVSCKASGFNIKDYYMHWVRQAPGQRLEWIGWIDLENANTVYDAKFQGRVTITRDTSASTAYMELSSLRSEDTAVYYCARDAYGRYFYDVWGQGTLVTVSS
VL: DIVMSQSPDSLAVSLGERATINCKSSQSLLNARTGKNYLAWYQQKPGQPPKLLIYWASTRSSGVPDRFSGSGSGTDFTLTISSLQAEDVAVYYCVQSYFRRTFGGGTKVEIK
The molecule B1 had a Kd of 91 nM.

B2: Antibody No. V009 (ADI-70326) IgG1 (antibody, V domains shown)
VH: B1 VH with N28D, D52E, N57D
VL: B1 VL
B2 displayed a Kd of 360 nM.

B3: Antibody No. V013 (ADI-70330) IgG1 (antibody, V domains shown)
VH: B1 VH with K30D, Y60D
VL: B1 VL
Consider B3, for which the Kd is 530 nM.

B4: Antibody No. V010 (ADI-70327) IgG1 (antibody, V domains shown)
VH: B1 VH with N28D, D52E, A56D, N57D
VL: B1 VL
With B4, the Kd turned out to be 510 nM.
